Experimental data taken from patent US20140134170A1, “USE OF INHIBITORS OF EGFR-FAMILY RECEPTORS IN THE TREATMENT OF HORMONE REFRACTORY BREAST CANCERS” (MERRIMACK PHARMACEUTICALS, INC., priority 2011, published 2014).

Columns and labels:
[1] = test system: MCF-7CA tumors; test: Letrozole-resistant MCF-7CA intratumoral aromatase xenograft model; type: in vivo, mice; conditions: for tumor growth during initial treatment: MM-121 600 μg Q3D i.p., letrozole 10 μg/mouse/day, treatment from the start; for tumor volume after acquired letrozole resistance: letrozole-resistant tumors re-grouped at about 14 weeks, followed to 19 weeks
Procedure: To investigate the mechanism of AI resistance, a xenograft model was developed that corresponds to ER+ postmenopausal breast cancer. Tumors for this intratumoral aromatase xenograft model are grown from MCF7 human breast adenocarcinoma cells that have been stably transfected with a human placental aromatase gene to provide a non-ovarian source of estrogen production in ovariectomized athymic mice (MCF-7CA, see e.g. Brodie et al., Clinical Cancer Research 884s Vol. 11, 884s-888s, Jan. 15, 2005 (Suppl.)). Sufficient estrogen is produced (from aromatization of injected androstenedione) by the MCF7-CA cells to stimulate their proliferation and tumor formation. This is a model of a postmenopausal breast cancer patient with tumors that express aromatase and are free of gonadotropin feedback regulation.
MCF-7CA cells were cultured in Eagle's minimum essential medium containing 5% fetal bovine serum and neomycin. The culture medium was changed twice weekly. Subconfluent MCF-7CA cells were scraped into Hank's solution and centrifuged at 1,000 rpm for 2 min at 4° C. The cells were then resuspended in Matrigel™ (10 mg/ml) to make a cell suspension of 2-5×10^7 cells/ml. Ovariectomized female BALB/c athymic mice 4-6 weeks of age (20-22 g body weight) were housed in a pathogen-free environment under controlled conditions of light and humidity and received food and water ad libitum. Each mouse was inoculated subcutaneously (s.c.) with 0.1 ml of the cell suspension. Animals were then injected s.c. daily with 0.1 mg androstenedione/mouse. Growth rates were determined by measuring the tumors with calipers weekly. Tumor volumes were calculated according to the formula for a sphere (4/3 r12. r 2). When tumors reached a measurable size, mice were divided into groups of 10 animals with equivalent tumor volumes (300 mm^3). Mice were treated with 0.1 ml compounds in 0.3% hydroxypropylcellulose (HPC) for 6 weeks.
Tumors were measured weekly and tumor volume was calculated. Mice were sacrificed if tumors continued to grow to volumes of greater than about 1400-1700 mm^3.

[2] = biological target: T1, ErbB3 (pErbB3) (Homo sapiens, UniProt P21860); test: Western blot for phosphorylated ErbB3 in ligand-stimulated MCF7 cells; type: cell-based; conditions: for phosphorylation of ErbB3 in stimulated cells: MCF7 cells without MM-121, stimulated 30 minutes, betacellulin relative to heregulin
T1 construct: endogenous in cells; host or cells: MCF7
Procedure: (§1) FIG. 1 comprises images of western blots of a gel of lysates from untreated control cells (“C”), cells pretreated with (“MM121”) or without pretreatment with MM-121 that were stimulated with heregulin beta 1 (“HRG”), betacellulin (“BTC”), or estrogen (“E2”).
(§2) MCF7 cells are either untreated or pretreated with MM-121 (250 nM) for 1 hour. Cells are then stimulated with heregulin betal (EGF domain, 10 nM R&D systems), betacellulin (20 nM, R&D systems) or estrogen (beta estradiol—100 nM, Sigma) for 30 minutes, or left unstimulated. Lysates of the cells are analyzed by western blot probed for pER and for pErbB3.
(§3) Cells were either untreated or pretreated with MM-121. Untreated and pretreated cells were stimulated with heregulin, betacellulin, or estrogen. Cell lysates were analyzed by western blot for phosphorylated forms of ErbB3 and estrogen receptor.

[3] = test system: estrogen receptor alpha (pER, ser 167 and ser 118); test: Western blot/densitometry for phosphorylated estrogen receptor in ligand-stimulated MCF7 cells; type: cell-based, human; conditions: for phosphorylation of the estrogen receptor in stimulated cells: MCF7 cells without MM-121, stimulated 30 minutes, betacellulin relative to heregulin
Description: as §1
FIG. 2 is a graph showing densitometry results from the relevant (pER) band in each of the control (“Con.”), heregulin (“HRG”), betacellulin (“BTC”), heregulin plus MM-121 (“HRG+MM121”) and betacellulin plus MM-121 (“BTC+MM121”) lanes in FIG. 1. Band density was normalized to GAPDH density and the normalized density (Y-axis) is shown for control and stimulated cells (both with and without MM-121 pretreatment) as indicated on the X-axis. The arrowhead between the HRG and BTC lanes indicates the pER band in the HRG lane.
as §2, §3

[4] = test system: TAMR-1, TAMR-7, or TAMR-8 cells (tamoxifen-resistant human mammary carcinoma xenografts); test: Tamoxifen-resistant MCF7 variant xenografts, MM-121 monotherapy; type: in vivo; conditions: 600 μg per mouse IP every three days; TAMR xenografts in nude mice
Procedure: Analyses of the anti-tumor efficacy and tolerability of MM-121 treatment of ER+ hormone refractory mammary tumor-bearing mice are carried out using xenografts of tamoxifen-resistant variants of MCF7 human mammary carcinoma cells. Tamoxifen-resistant human mammary carcinoma cell lines TAMR-1, TAMR-7, and TAMR-8 cells are obtained from the laboratory of A. E. Lykkesfeldt (Department of Tumor Endocrinology, Division for Cancer Biology, Danish Cancer Society. Strandboulevarden 49, DK-2100 Copenhagen 0, Denmark). These are grown as xenografts in female athymic nu+/nu+ nude mice obtained from Charles River Laboratories International. […]
To investigate anti-tumor efficacy in monotherapy, MM-121 or vehicle control (100 μL) is given to tumor-bearing mice (i.e., after 14 days of tumor growth following injection of cells) at 600 μg per mouse (MM-121 as a 6 mg/mL solution in PBS) by IP injection every three days. […] Efficacy is determined by comparing tumor growth between the antibody-treated mice and the vehicle control mice and is expressed as the experimental to control ratio of median relative tumor volumes (T/C value). […]
Mice are randomized and therapy begins when a sufficient number of individual tumors have grown to a volume of approximately 200 mm^3. Tumors are measured (L x W) by digital caliper measurement and the tumor volume is calculated using the formula π/6 (W^2×L). […]

| reduction in the amount of pErbB3 ([2]; MCF7 cells pretreated with MM-121 250 nM for 1 hour, heregulin 10 nM for 30 minutes) | Molecule | tumor growth during initial treatment [1] | time to letrozole resistance (tumor volume increased to 600 mm^3) ([1]; daily letrozole 10 μg/mouse/day) | tumor volume after acquired letrozole resistance [1] | phosphorylation of ErbB3 in stimulated cells [2] | phosphorylation of the estrogen receptor in stimulated cells [3] | level of ER phosphorylation relative to estrogen stimulation ([3]; MCF7 cells, heregulin 10 nM vs beta estradiol 100 nM, 30 minutes) | tumor growth [4] | reduction in the amount of pER ([3]; MCF7 cells pretreated with MM-121 250 nM for 1 hour, heregulin 10 nM for 30 minutes, densitometry normalized to GAPDH) |
| --- | --- | --- | --- | --- | --- | --- | --- | --- | --- |
|  | N#Cc1ccc(C(c2ccc(C#N)cc2)n2cncn2)cc1 [letrozole] | progressed more slowly | about 14 weeks | continued to increase in volume over time |  |  |  |  |  |
|  | betacellulin: betacellulin (R&D systems), EGF-like stimulating ligand |  |  |  | to a lesser extent (about ⅔ less) | to a lesser extent (about ⅔ less) |  |  |  |
|  | heregulin: heregulin beta 1 (EGF domain, R&D systems), stimulating ligand |  |  |  | exhibited phosphorylation of both the estrogen receptor and ErbB3 | exhibited phosphorylation of both the estrogen receptor and ErbB3 | at least four-fold |  |  |
| about ⅔ | MM-121: fully human anti-ErbB3 monoclonal antibody; VH and VL SEQ ID NOs: 1 and 2; heavy and light chains SEQ ID NOs 42 and 43 (antibody, listed as Homo sapiens) heavy: EVQLLESGGGLVQPGGSLRLSCAASGFTFSHYVMAWVRQAPGKGLEWVSSISSSGGWTLYADSVKGRFTISRDNSKNTLYLQMNSLRAEDTAVYYCTRGLKMATIFDYWGQGTLVTVSSASTKGPSVFPLAPCSRSTSESTAALGCLVKDYFPEPVTVSWNSGALTSGVHTFPAVLQSSGLYSLSSVVTVPSSNFGTQTYTCNVDHKPSNTKVDKTVERKCCVECPPCPAPPVAGPSVFLFPPKPKDTLMISRTPEVTCVVVDVSHEDPEVQFNWYVDGVEVHNAKTKPREEQFNSTFRVVSVLTVVHQDWLNGKEYKCKVSNKGLPAPIEKTISKTKGQPREPQVYTLPPSREEMTKNQVSLTCLVKGFYPSDIAVEWESNGQPENNYKTTPPMLDSDGSFFLYSKLTVDKSRWQQGNVFSCSVMHEALHNHYTQKSLSLSPGK light: QSALTQPASVSGSPGQSITISCTGTSSDVGSYNVVSWYQQHPGKAPKLIIYEVSQRPSGVSNRFSGSKSGNTASLTISGLQTEDEADYYCCSYAGSSIFVIFGGGTKVTVLGQPKAAPSVTLFPPSSEELQANKATLVCLVSDFYPGAVTVAWKADGSPVKVGVETTKPSKQSNNKYAASSYLSLTPEQWKSHRSYSCRVTHEGSTVEKTVAPAECS | grew rapidly over the course of 5 weeks |  | continued to increase in volume over time |  |  |  | inhibits or stops tumor growth, and in some cases reduces tumor size | about ⅔ |
